Test results: publication PMC4533223, “Structures of CD6 and Its Ligand CD166 Give Insight into Their Interaction” (Structure(London, England:1993), 2015)
Read-outs that look alike come from different tables or passages of the source. Values belong to the binder of their own block, whether it stands above or below them.

Experiments:
[1] = molecular target: T1, human CD6 domains 1-3 plus stalk fused to rat CD4 domains 3 and 4 (CD6 d1-3S, wild type, S351) (human, UniProt P30203 18-402, biotin on the tag (immobilisation to streptavidin, Figure S1)); assay: SPR; BIAcore 3000; CD6-CD4d3+4 chimeras (d1-3S, d2-3S, d3S) immobilised via the biotin tag to streptavidin, rat CD4 d3+4 in the control flow cell; soluble CD166 VVC injected, top 1.0 μM plus nine two-fold dilutions; 37 °C, HBS-EP, 20 μl/min; equilibrium binding, Langmuir 1:1 fit; conditions: one partner purified
T1 construct: also called CD6-CD4d3+4; CD6 WT; not shown: rat CD4 domains 3 and 4 (CD4d3+4), C-terminal, kept
T1 sequence (looked up): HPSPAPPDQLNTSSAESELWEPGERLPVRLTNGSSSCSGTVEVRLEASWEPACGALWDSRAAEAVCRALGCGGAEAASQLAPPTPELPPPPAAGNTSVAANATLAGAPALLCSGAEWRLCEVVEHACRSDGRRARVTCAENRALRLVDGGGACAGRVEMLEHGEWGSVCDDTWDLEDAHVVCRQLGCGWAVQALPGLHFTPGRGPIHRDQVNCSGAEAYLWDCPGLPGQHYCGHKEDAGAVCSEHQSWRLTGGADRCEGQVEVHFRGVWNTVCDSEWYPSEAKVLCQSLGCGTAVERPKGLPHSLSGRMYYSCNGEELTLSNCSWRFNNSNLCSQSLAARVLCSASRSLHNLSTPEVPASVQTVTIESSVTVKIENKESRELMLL

[2] = molecular target: the molecule itself; assay: SEC-MALS; Superdex200 10/30 in 50 mM Tris.HCl, pH 7.5, 150 mM NaCl, 0.4 ml/min; CD6 alone 39 µM, CD166 VVC alone 28 µM, equimolar mixture 27 µM each; samples diluted approximately 10-fold on the column
[3] = molecular target: human CD6 domains 2-3 plus stalk fused to rat CD4 domains 3 and 4 (CD6 d2-3S) (human) (UniProt P30203); assay: SPR; BIAcore 3000; CD6-CD4d3+4 chimeras (d1-3S, d2-3S, d3S) immobilised via the biotin tag to streptavidin, rat CD4 d3+4 in the control flow cell; soluble CD166 VVC injected, top 1.0 μM plus nine two-fold dilutions; 37 °C, HBS-EP, 20 μl/min; equilibrium binding, Langmuir 1:1 fit
[4] = molecular target: human CD6 domain 3 plus stalk fused to rat CD4 domains 3 and 4 (CD6 d3S) (human) (UniProt P30203); assay: as above
[5] = molecular target: T1, human CD6 domains 1-3 plus stalk fused …; assay: as above; conditions: one partner purified; remark: listed apart in the source
[6] = molecular target: T2, human CD6-CD4d3+4 chimera, mutant S351A (human, UniProt P30203 18-402, S351A); assay: SPR; BIAcore 3000; CD6 S351, S351A and S351N (CD4d3+4 chimeras) immobilised via OX68 mAb, rat CD4 d3+4 in the control flow cell; soluble CD166 VVC injected, top 2.5 μM plus nine two-fold dilutions; 25 °C, HBS-EP, 20 μl/min; KD from equilibrium binding (Langmuir 1:1), koff from one phase exponential decay; conditions: one partner purified
T2 construct: human CD6 extracellular region with the membrane proximal stalk, as Dm2; also called CD6 S351A; source: mutant made with a Q5 SDM kit; not shown: rat CD4 domains 3 and 4 (CD4d3+4), C-terminal, kept
T2 sequence (looked up): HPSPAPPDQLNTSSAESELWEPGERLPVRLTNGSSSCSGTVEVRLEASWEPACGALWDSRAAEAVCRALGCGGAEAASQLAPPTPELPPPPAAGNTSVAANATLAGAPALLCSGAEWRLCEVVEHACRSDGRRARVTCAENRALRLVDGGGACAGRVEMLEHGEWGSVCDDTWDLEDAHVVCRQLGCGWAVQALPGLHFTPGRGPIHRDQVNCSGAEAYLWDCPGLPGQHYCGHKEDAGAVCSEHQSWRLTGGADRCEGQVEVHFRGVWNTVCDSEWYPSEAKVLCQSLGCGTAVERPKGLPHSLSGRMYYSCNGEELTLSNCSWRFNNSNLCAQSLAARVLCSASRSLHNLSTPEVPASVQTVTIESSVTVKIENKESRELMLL

[7] = molecular target: T3, human CD6-CD4d3+4 chimera, SNP variant S351N (human, UniProt P30203 18-402, S351N, N-linked glycosylation at N351 (shown by mass spectrometry)); assay: as above; conditions: one partner purified
T3 construct: human CD6 extracellular region with the membrane proximal stalk, as Dm2; S351N is a SNP found in 10% of the genomes analyzed; The 293T cells and the purification with OX68-Sepharose are told for the sample used in the glycosylation mass spectrometry; also called CD6 S351N; CD6-CD4d3+4 S351N; source: transiently expressed in 293T cells; not shown: rat CD4 domains 3 and 4 (CD4d3+4), C-terminal, kept
T3 sequence (looked up): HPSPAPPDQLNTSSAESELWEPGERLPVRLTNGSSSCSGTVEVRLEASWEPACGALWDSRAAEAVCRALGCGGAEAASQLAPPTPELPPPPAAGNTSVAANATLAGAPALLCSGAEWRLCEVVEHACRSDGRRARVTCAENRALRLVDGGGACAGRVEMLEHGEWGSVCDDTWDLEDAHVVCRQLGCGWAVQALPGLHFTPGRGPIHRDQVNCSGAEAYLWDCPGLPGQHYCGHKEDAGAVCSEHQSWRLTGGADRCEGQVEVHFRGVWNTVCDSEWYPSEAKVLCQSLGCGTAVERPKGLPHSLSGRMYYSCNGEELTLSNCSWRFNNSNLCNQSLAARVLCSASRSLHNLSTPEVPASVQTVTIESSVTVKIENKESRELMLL

[8] = molecular target: T1, human CD6 domains 1-3 plus stalk fused …; assay: as above; conditions: one partner purified
[9] = molecular target: human CD6 domains 2-3 plus stalk fused to rat CD4 domains 3 and 4 (CD6 d2-3S) (human) (UniProt P30203); assay: SPR; BIAcore 3000; CD6-CD4d3+4 chimeras (d1-3S, d2-3S, d3S) immobilised via the biotin tag to streptavidin, rat CD4 d3+4 in the control flow cell; soluble CD166 VVC injected, top 1.0 μM plus nine two-fold dilutions; 37 °C, HBS-EP, 20 μl/min; equilibrium binding, Langmuir 1:1 fit; remark: listed apart in the source
[10] = molecular target: human CD6 domain 3 plus stalk fused to rat CD4 domains 3 and 4 (CD6 d3S) (human) (UniProt P30203); assay: as above; remark: listed apart in the source
[11] = molecular target: T2, human CD6-CD4d3+4 chimera, mutant S351A; assay: SPR; BIAcore 3000; CD6 S351, S351A and S351N (CD4d3+4 chimeras) immobilised via OX68 mAb, rat CD4 d3+4 in the control flow cell; soluble CD166 VVC injected, top 2.5 μM plus nine two-fold dilutions; 25 °C, HBS-EP, 20 μl/min; KD from equilibrium binding (Langmuir 1:1), koff from one phase exponential decay; conditions: one partner purified; remark: listed apart in the source
[12] = molecular target: T3, human CD6-CD4d3+4 chimera, SNP variant …; assay: as above; conditions: one partner purified; remark: listed apart in the source
[13] = molecular target: T1, human CD6 domains 1-3 plus stalk fused …; assay: as above; conditions: one partner purified; remark: listed apart in the source
[14] = molecular target: the molecule itself; assay: native MS; each protein alone at 20 μM; buffer exchanged into 250 mM ammonium acetate pH 7.6; dimer to monomers
[15] = molecular target: T4, human CD6 S351N (SNP variant) (human, UniProt P30203 18-668, S351N, N-linked glycan at N351; N28, N49, N229 glycosylated, N339 appears partially glycosylated); assay: SPR; soluble CD166 VVC over streptavidin-immobilized chimeric CD6 forms and variants; conditions: both partners purified
T4 construct: human CD6 with the SNP S351N, found in 10% of the genomes analyzed; made by mutagenesis; Probably the same chimeric, streptavidin-immobilized format as m3 (surmised); construct in the supplement
T4 sequence (looked up): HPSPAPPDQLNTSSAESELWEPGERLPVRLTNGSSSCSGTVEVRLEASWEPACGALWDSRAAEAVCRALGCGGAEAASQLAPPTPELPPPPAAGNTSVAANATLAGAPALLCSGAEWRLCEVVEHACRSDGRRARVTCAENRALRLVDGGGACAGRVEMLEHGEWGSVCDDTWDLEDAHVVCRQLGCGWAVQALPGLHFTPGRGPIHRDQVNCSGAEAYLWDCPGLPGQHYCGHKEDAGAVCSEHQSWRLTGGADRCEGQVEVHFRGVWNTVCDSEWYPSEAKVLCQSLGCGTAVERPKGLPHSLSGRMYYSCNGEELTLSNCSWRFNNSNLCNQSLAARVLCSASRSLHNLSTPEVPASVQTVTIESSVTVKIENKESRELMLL

Kd [1]: 90 nM | Kd [3]: 90 nM | Kd [4]: 100 nM | Kd [5]: 77 nM | Kd [6]: 60 nM | koff [6]: 0.05 s⁻¹ | Kd [7]: 500 nM | koff [7]: 0.4 s⁻¹ | Kd [8]: 90 nM | koff [8]: 0.07 s⁻¹ | Kd [9]: 81 nM | Kd [10]: 86 nM | Kd [11]: 83 nM | koff [11]: 0.049 s⁻¹ | Kd [12]: 599 nM | koff [12]: 0.337 s⁻¹ | Kd [13]: 120 nM | koff [13]: 0.072 s⁻¹
B1: soluble recombinant human CD166 VVC (IgSF domains 1-3, two V-like domains and one C-like domain), His-tagged (domain or fragment, UniProt Q13740 28-335, looked up)
chain: WYTVNSAYGDTIIIPCRLDVPQNLMFGKWKYEKPDGSPVFIAFRSSTKKSVQYDDVPEYKDRLNLSENYTLSISNARISDEKRFVCMLVTEDNVFEAPTIVKVFKQPSKPEIVSKALFLETEQLKKLGDCISEDSYPDGNITWYRNGKVLHPLEGAVVIIFKKEMDPVTQLYTMTSTLEYKTTKADIQMPFTCSVTYYGPSGQKTIHSEQAVFDIYYPTEQVTIQVLPPKNAIKEGDNITLKCLGNGNPPPEEFLFYLPGQPEGIRSSNTYTLTDVRRNATGDYKCSLIDKKSMIASTAITVHYLDLS
notes: signal peptide in the construct; human CD166 (ALCAM) residues 1-335 with the native leader; Deglycosylated with EndoHf only for crystallization; also called ALCAM; source: purified (NiNTA, Superdex200)
stoichiometry N [2]: 2

fold weaker affinity than for CD6 S351 [15]: 10 fold
B2: human CD166 IgSF domains 1-3 (CD166 VVC), His-tagged (residues 1-335) (domain or fragment, UniProt Q13740 28-335, looked up)
chain: WYTVNSAYGDTIIIPCRLDVPQNLMFGKWKYEKPDGSPVFIAFRSSTKKSVQYDDVPEYKDRLNLSENYTLSISNARISDEKRFVCMLVTEDNVFEAPTIVKVFKQPSKPEIVSKALFLETEQLKKLGDCISEDSYPDGNITWYRNGKVLHPLEGAVVIIFKKEMDPVTQLYTMTSTLEYKTTKADIQMPFTCSVTYYGPSGQKTIHSEQAVFDIYYPTEQVTIQVLPPKNAIKEGDNITLKCLGNGNPPPEEFLFYLPGQPEGIRSSNTYTLTDVRRNATGDYKCSLIDKKSMIASTAITVHYLDLS
modifications: N-linked glycans (endoglycosidase H sensitive; heterogeneity in mass caused by glycosylation)
notes: signal peptide in the construct; In the crystal (PDB 5a2f) only domains 1 and 2 were resolved; the third domain was probably cleaved off before crystal growth; protein deglycosylated with EndoHf for crystallization; also called ALCAM; source: purified (NiNTA, Superdex200)
stoichiometry N [14]: 2

B3: human CD6 SRCR domains 1-3, His-tagged (residues 1-364) (domain or fragment, UniProt P30203 18-364, looked up)
chain: HPSPAPPDQLNTSSAESELWEPGERLPVRLTNGSSSCSGTVEVRLEASWEPACGALWDSRAAEAVCRALGCGGAEAASQLAPPTPELPPPPAAGNTSVAANATLAGAPALLCSGAEWRLCEVVEHACRSDGRRARVTCAENRALRLVDGGGACAGRVEMLEHGEWGSVCDDTWDLEDAHVVCRQLGCGWAVQALPGLHFTPGRGPIHRDQVNCSGAEAYLWDCPGLPGQHYCGHKEDAGAVCSEHQSWRLTGGADRCEGQVEVHFRGVWNTVCDSEWYPSEAKVLCQSLGCGTAVERPKGLPHSLSGRMYYSCNGEELTLSNCSWRFNNSNLCSQSLAARVLCSASR
modifications: N-linked glycans (endoglycosidase H sensitive; heterogeneity in mass caused by glycosylation; GlcNAc seen at N229 in the crystal)
notes: signal peptide in the construct; Deglycosylated with EndoHf only for crystallization; source: purified (NiNTA, Superdex200)
stoichiometry N [14]: 2
